The values below come from patent US20260132194A1 (XBIOTECH, published 2026).

The target in this test is T1, recombinant human interleukin 1 alpha (IL-1α) (human, UniProt P01583 113-271).
T1 sequence (looked up): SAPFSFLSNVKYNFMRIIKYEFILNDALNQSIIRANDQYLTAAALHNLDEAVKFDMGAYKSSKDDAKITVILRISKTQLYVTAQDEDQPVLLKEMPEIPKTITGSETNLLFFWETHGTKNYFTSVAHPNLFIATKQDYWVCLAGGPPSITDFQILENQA
Nature of the test: cell-based or functional assay.

B1: XIA14 human monoclonal antibody (antibody, V domains shown)
VH: QVQLVQSGAEVKKPGSSVKVSCKASGGRFTNYAILWVRQAPGQGLQWLGGIIPIFDETDHAQDFQDRLTITVDESMTTAYMELSSLRPEDTAIYYCATGSNSYYGLYWGQGTLVTVSS
VL: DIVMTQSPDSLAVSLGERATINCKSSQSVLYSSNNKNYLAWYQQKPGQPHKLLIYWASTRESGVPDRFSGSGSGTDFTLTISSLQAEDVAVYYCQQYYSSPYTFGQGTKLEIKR
As for B1, the “HUVEC-based potency assay IC50 (ICAM-1 expression by flow cytometry)” value was found to be 5 ng/mL.
